# Results published in patent US20050265970.
# T1: GST-Gadd45β (full-length murine Gadd45β directly fused to GST), P22339
# T1 chain: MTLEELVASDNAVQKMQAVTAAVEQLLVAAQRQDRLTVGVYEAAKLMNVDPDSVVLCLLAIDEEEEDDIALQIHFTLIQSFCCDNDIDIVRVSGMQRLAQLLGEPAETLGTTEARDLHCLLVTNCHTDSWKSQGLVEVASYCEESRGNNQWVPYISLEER
# T2: His6-Gadd45β (full-length human Gadd45β purified from E. coli), O75293
# T2 chain: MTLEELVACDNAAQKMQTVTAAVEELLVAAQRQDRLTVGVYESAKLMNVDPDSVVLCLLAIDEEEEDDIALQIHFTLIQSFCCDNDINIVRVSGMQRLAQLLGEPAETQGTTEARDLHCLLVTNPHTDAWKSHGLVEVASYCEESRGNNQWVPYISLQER
# B1: FLAG-MKK7 (FLAG-tagged JNKK2) immunoprecipitated from 293 cells (protein)
# chain: MAASSLEQKLSRLEAKLKQENREARRRIDLNLDISPQRPRPTLQLPLANDGGSRSPSSESSPQHPTPPARPRHMLGLPSTLFTPRSMESIEIDQKLQEIMKQTGYLTIGGQRYQAEINDLENLGEMGSGTCGQVWKMRFRKTGHVIAVKQMRRSGNKEENKRILMDLDVVLKSHDCPYIVQCFGTFITNTDVFIAMELMGTCAEKLKKRMQGPIPERILGKMTVAIVKALYYLKEKHGVIHRDVKPSNILLDERGQIKLCDFGISGRLVDSKAKTRSAGCAAYMAPERIDPPDPTKPDYDIRADVWSLGISLVELATGQFPYKNCKTDFEVLTKVLQEEPPLLPGHMGFSGDFQSFVKDCLTKDHRKRPKYNKLLEHSFIKRYETLEVDVASWFKDVMAKTESPRTSGVLSQPHLPFFR
# Experiments:
# [1] = molecular target: T1, GST-Gadd45β (full-length murine Gadd45β …)
# [2] = molecular target: Gadd45β-derived peptide 2 (pure synthetic peptide, sequence in FIG. 37C)
# [3] = molecular target: Gadd45β-derived peptide 8 (pure synthetic peptide, sequence in FIG. 37C)
# [4] = molecular target: T2, His6-Gadd45β (full-length human Gadd45β …)
protein,measurement,setting,value
B1,GST-JNK1 phosphorylation by MKK7 (kinase assay),[1],"Both Gadd45β polypeptides, but neither GST nor His6-EF3, blocked GST-JNK1 phosphorylation by MKK7, in a dose-dependent manner"
same,JNKK2 kinase activity in vitro (phosphorylation of GST-JNK1),[1],"both GST-Gadd45β and His6-Gadd45β effectively suppressed JNKK2 activity, in vitro, even at the lowest concentrations that were tested"
same,MKK7 kinase assay with GST-JNK1 substrate,[2],"the amino acid regions contained in the overlapping, Gadd45β-derived peptides 2 and 8 are sufficient to recapitulate most of the inhibitory activity of Gadd45β on MKK7"
same,MKK7 kinase assay with GST-JNK1 substrate,[3],"the amino acid regions contained in the overlapping, Gadd45β-derived peptides 2 and 8 are sufficient to recapitulate most of the inhibitory activity of Gadd45β on MKK7"
same,GST-JNK1 phosphorylation by MKK7 (kinase assay),[4],"Both Gadd45β polypeptides, but neither GST nor His6-EF3, blocked GST-JNK1 phosphorylation by MKK7, in a dose-dependent manner"
same,JNKK2 kinase activity in vitro (phosphorylation of GST-JNK1),[4],"both GST-Gadd45β and His6-Gadd45β effectively suppressed JNKK2 activity, in vitro, even at the lowest concentrations that were tested"
